The target of this assay is GPIIb/IIIa (human, UniProt P08514). In words: competitive binding on HEL 92.1.7 cells, radioiodinated mouse C4G1 as tracer. How it is done:
The affinities of the humanized C4G1 antibody, Fab fragment and F(ab')_2-1 fragment were determined by competitive binding with the respective mouse C4G1 antibody and fragments. Purified human platelets were used as source of the GPIIb/IIIa antigen. The platelets were purified from buffy coats from normal human donors by centrifugation on ficoll-hypaque. Increasing amounts of humanized or mouse competitor antibody or fragment was added to 4.5 ng of radioiodinated tracer C4G1 antibody (3.5 µCi/ug) and incubated with 3×10^7 platelets in 0.2 ml of modified Tyrode's buffer for 1 hr. at room temperature. Cells were washed with 2 ml of ice-cold buffer and pelleted. The radioactivities were measured, and the concentrations of bound and free tracer antibody were calculated (FIG. 8). The binding affinities of the various antibodies and fragments were calculated as in Queen et al., Proc. Nat. Acad. Sci. USA 86, 10029 (1989). […] The same result was obtained when competitive binding was performed with HEL 92.1.7 cells as source of GPIIb/IIIa antigen. Moreover all the actual binding affinities to these cells were about 10^8 M^-1 or higher.

Bounds are passed on as bounds.

4 molecules from patent publication US5777085, “Humanized antibodies reactive with GPIIB/IIIA” (Protein Design Labs, Inc., dated 1998) can be followed below.

B1: humanized C4G1 antibody (antibody, V domains shown)
VH: QVQLVQSGAEVKKPGSSVKVSCKASGYAFTNYLIEWVRQAPGQGLEWIGVIYPGSGGTNYNEKFKGRVTLTVDESTNTAYMELSSLRSEDTAVYFCARRDGNYGWFAYWGQGTLVTVSS
VL: DIQMTQTPSTLSASVGDRVTISCRASQDINNYLNWYQQKPGKAPKLLIYYTSTLHSGVPSRFSGSGSGTDYTLTISSLQPDDFATYFCQQGNTLPWTFGQGTKVEVKR
In the case of B1, the Ka is over 1e+08 M⁻¹.

B2: mouse C4G1 antibody (antibody, V domains shown)
VH: QVQLQQSGAELVGPGTSVRVSCKASGYAFTNYLIEWVKQRPGQGLEWIGVIYPGSGGTNYNEKFKGKATLTVDKSSTTAYMQLSSLTSDDSAVYFCARRDGNYGWFAYWGRGTLVTVSA
VL: DIQMTQTTSSLSASLGDRVTISCRASQDINNYLNWYQQKPDGIVKLLIYYTSTLHSGVPSRFSGSGSGTDYSLTISNLEQEDIATYFCQQGNTLPWTFGGGTKLEIK
B2 yielded a Ka of at least 1e+08 M⁻¹.

B3: mouse C4G1 Fab fragment (Fab, V domains shown)
VH: B2 VH
VL: B2 VL
In turn, B3 came in with a Ka of at least 1e+08 M⁻¹.

B4: mouse C4G1 F(ab')2 fragment (other)
VH: B2 VH
VL: B2 VL
Molecule B4 yielded a Ka of at least 1e+08 M⁻¹.
